Experimental findings from publication PMC5395944 are described below.

The test concerns the target PglK-E510Q (C. jejuni) (UniProt Q0P9C4). Kind of test: crystal structure.

In turn, “PglK-E510Q (from UniProt Q0P9C4) (natural protein)” registered a stoichiometry N of 2.
